In series [1] the target is T1, recombinant His-tagged Der p1 (dust mite, UniProt P08176 99-320, limits assumed).
T1 sequence (looked up): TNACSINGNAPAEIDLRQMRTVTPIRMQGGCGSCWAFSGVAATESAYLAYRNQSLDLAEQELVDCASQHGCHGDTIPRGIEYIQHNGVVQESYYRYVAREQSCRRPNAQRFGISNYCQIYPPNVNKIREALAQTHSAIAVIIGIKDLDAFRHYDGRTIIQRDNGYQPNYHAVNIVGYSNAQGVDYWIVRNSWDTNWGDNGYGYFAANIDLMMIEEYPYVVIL
As to the kind of experiment: ELISA, Der p1-His 0.0032 µg/mL, repeat 1. (In general: In an ELISA, binding on a coated surface is turned into a signal by an enzyme label.)

Series [2] has as its target T1, recombinant His-tagged Der p1. Briefly: ELISA, Der p1-His 0.08 µg/mL, repeat 2.
Series [3] has the same target. Briefly: ELISA, Der p1-His 0.00064 µg/mL, repeat 1.
Series [4] has the same target. As to the kind of experiment: ELISA, Der p1-His 0.016 µg/mL, repeat 1.
Series [5] shares this target. As to the kind of experiment: ELISA, Der p1-His 0.016 µg/mL, repeat 2.
For series [6] the target is unchanged. Briefly: ELISA, Der p1-His 0.4 µg/mL, repeat 1.
For series [7] the target is unchanged. As to the kind of experiment: ELISA, Der p1-His 0.4 µg/mL, repeat 2.
The target is the same in series [8]. As to the kind of experiment: ELISA, Der p1-His 0.08 µg/mL, repeat 1.
Series [9] has the same target. As to the kind of experiment: ELISA, Der p1-His 10 µg/mL, repeat 2.
Series [10] shares this target. As to the kind of experiment: ELISA, Der p1-His 0.00064 µg/mL, repeat 2.
The target is the same in series [11]. Briefly: ELISA, Der p1-His 0.0032 µg/mL, repeat 2.
Series [12] has the same target. Briefly: ELISA, Der p1-His 2 µg/mL, repeat 2.
Series [13] has the same target. Briefly: ELISA, Der p1-His 10 µg/mL, repeat 1.
Series [14] has the same target. As to the kind of experiment: ELISA, Der p1-His 2 µg/mL, repeat 1.
The target in series [15] is T2, Fel D1 epitope peptide SDAB22110-115-28AA-2 (cat).
T2 peptide: ENARILKNCVDAKM
Briefly: ELISA on Fel D1 epitope peptide; the row names two epitopes (SEQ ID NO: 61 and 58) and one EC50. The procedure: (§1) 2 microgram per milliliter (μg/mL) target antigen is coated in a 96-well plate and ELISA assay is performed after incubation with candidate VHHs. The binding EC50 of each clone is calculated using Prism GraphPad. The positive control antibody is involved as an internal control.
(§2) Isolated VHH clones were further validated by performing an ELISA assay as described in Example 1. Binding results are shown in FIG. 15B-15D for the epitope of SEQ ID NO: 61. Binding results are shown in FIG. 16 for the epitope of SEQ ID NO: 59. Binding results are shown in FIG. 17A-17E for the epitope of SEQ ID NO: 60. Binding results are shown in FIG. 18 for the epitope of SEQ ID NO: 58.

In series [16] the target is Fel D1. Briefly: ELISA binding assay of anti-Fel d1 VHH clones on Fel D1 epitopes. More on the design: species or system cat. On the procedure: as §1
Four distinct epitopes of Fel D1 were selected to be used for further identification. Peptides were synthesized for the four epitopes for VHH identification.
as §2

The target in series [17] is T3, Fel D1 (Felis catus, UniProt P30438+P30440).
T3 sequence (P30438 23-92): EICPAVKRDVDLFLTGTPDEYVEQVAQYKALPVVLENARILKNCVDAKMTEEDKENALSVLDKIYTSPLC
T3 sequence (P30440 18-109): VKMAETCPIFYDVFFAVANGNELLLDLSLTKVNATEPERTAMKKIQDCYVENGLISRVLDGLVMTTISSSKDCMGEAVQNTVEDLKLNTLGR
Briefly: Size Exclusion Chromatography test of Fel D1 neutralization (tetramer formation). Further details: species or system cat. The following applies: 30 ug Fel D1 and 30 ug 1-C3 pre-incubated at 37° C. for 4 hours. On the procedure:
Functional validation was also performed testing the capability of an exemplary clone to neutralize Fel D1. Fel D1 is naturally a weaker tetramer that causes allergic reactions by causing cross-linking of neighboring IgEs on immune cells (mast cells, etc.). […] On the SEC, there are two distinct peaks for pure Fel D1, the earlier peak representing the tetramer and the laker peak representing the monomer (FIG. 20A). Conditions for this SEC graph are (Column: Zenix-C SEC-80, 7.8×300 mm, 3 um, 80 Å; Sample: Fel D1; Sample Volume: 30 μL (25 ug); Mobile phase: 150 mM phosphate buffer, pH 7.0; Flow rate: 0.7 mL/min; Detection: UV 280 nm; System: Thermo Vanquish Flex.
Conditions for this SEC graph are (Column: Zenix-C SEC-80, 7.8×300 mm, 3 um, 80 Å; Sample: 1-C3; Sample Volume: 30 μL; Mobile phase: 150 mM phosphate buffer, pH 7.0; Flow rate: 0.7 mL/min; Detection: UV 280 nm; System: Thermo Vanquish Flex.
When clone C3 and Fel D1 are incubated together for 4 hours at 37° C. and then assayed, the two Fel D1 peaks were no longer detected and only the C3-Fel D1 complex is detected. […]
Background: Size exclusion chromatography separates by hydrodynamic size, large species first.

The nature of series [18]: Thermostability (Tm, Tonset, Tagg) by Nanotemper DSF. Further details: key to Tm2 / Tagg / Tm1 / Tm / Tm3 / Tonset / Tonset ø (mean) / Tagg ø (mean): temperatures in °C. Conditions: for Tm: single melting point. The class given is physicochemical. A digest of the protocol: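 Isolated VHH clones were heated from 20 °C to 95 °C at 1 °C/min using DSF. Tm, Tonset and Tagg were derived from the thermal curves. Where several melting transitions occurred, each was reported in order (Tm1, Tm2, etc.).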

Series [19] has as its target T4, recombinant Fel d1-His (Felis catus, UniProt P30438+P30440).
T4 construct: His; made in house
T4 sequence (P30438 23-92): T3 sequence (P30438 23-92)
T4 sequence (P30440 18-109): T3 sequence (P30440 18-109)
Briefly: Recombinant Fel D1 His binding assay with positive control antibodies. Further details: species or system cat. The procedure:
In order to obtain single variable domain on heavy chain, i.e., VHH, specific for cat allergen Fel D1, a recombinant His-tagged Fel D1 was prepared, which reached high purity, as shown via SDS-Page Western blotting in FIG. 14. To confirm this, an ELISA was performed measuring optical density when the recombinant Fel d1-His is incubated with two known Fel D1 antibodies which are summarized in Table 18. As summarized in Table 19, the recombinant Fel d1-His was effectively bound by both antibodies.

[20] abbreviates: anti-Fel d1 VHH, in °C (unit assumed).
The mark [21] stands for this setting: Average of two replicates, anti-Fel d1 VHH.
Setting [22] is: Average of two replicates, anti-Fel d1 VHH, in °C (unit assumed).
The mark [23] stands for this setting: Replicate 1, in °C (unit assumed).
The mark [24] stands for this setting: Replicate 2, in °C (unit assumed).

This note sets out measurements from patent publication US20240352105A1, “COMPOSITIONS AND METHODS FOR NEUTRALIZING ANTIGENS” (PACAGEN, INC, priority 2023, published 2024).

Where “and” joins values, the source holds several entries; their conditions need not be identical. Identical values can stand only once.

A word on the EC50: it is the concentration needed to bring the measured effect to its halfway point.

For known Der p1 antibody (clone 10B9), the OD at 450 nm was found to be 0.25 OD in series [1]; 0.49 OD in [2]; 0.13 OD in series [3]; 0.2 OD in series [4]; 0.17 OD in series [5]; 1.8 OD in series [6]. The OD at 450 nm in series [7] turned out to be 1.87 OD; in [8] it was 0.58 OD; in series [9], 4.4 OD; in series [10] it was 0.12 OD; in series [11], 0.12 OD; in [12] it was 4.31 OD. For the same molecule, the OD at 450 nm in series [13] was 4.37 OD; in series [14] it was 4.03 OD.

B1: SDAB22110-1-1-C3 (VHH)
VHH: QLQLVESGGGLVQPGGSLRLSCEASGFTFKYYTMSWYRQAPGKERELVATITNGDRTNYADSVKGRFTISRDNAKNTLYLQMNSLKPYDTAVYYCNRHLPLLQIWGQGTQVTVSS
notes: Expressed from a prokaryotic vector
B1 gave an EC50 in [15] of 0.352 µg/mL.

B2: SDAB22110-1-1-C3: anti-Fel d1 VHH clone, SEQ ID NO: 49 (protein)
VHH: AVQLVESGGGLVQPGGSLRLSCAASGFTFTNYAMRWYRQAPGKERELVAAIPTSGGYTYTADSVKGRFTISRDNAKNTVYLQMNSLKPEDTAVYYCYGLRTLSDYYWGQGTQVTVSS
Regarding B2, in series [16] (Epitope Recognized ENARILKNCVDAKM (SEQ ID NO: 61), VAQYKALPVVLENA (SEQ ID NO: 58)), the EC50 worked out at 0.352 µg/mL. Also, the “Fel D1 tetramer formation (SEC)” value in [17] was “preventing the Fel D1 tetramer from forming”. Moreover, the Tagg in [18] (anti-Fel d1 VHH) was 58.93. In addition, in series [18] (setting [20]), the Tm is reported as 66.50.

B3: SDAB22110-3-1-D9-1: anti-Fel d1 VHH clone, SEQ ID NO: 52 (protein)
VHH: AVQLVESGGGLVQPGGSLRLSCIISGFTSVSYSIVWFRQAPGKGREGVSCIGSSGGSTDYIDSVKGRFTISRDSAKNTVYLQMDCLKPEDTAVYYCAALRDVYRLCVIDYMNNDYWGQGTQVTVSS
Turning to B3, the EC50 in series [16] (Epitope Recognized FAVANGNELLLDLS (SEQ ID NO: 59)) was determined as 12.940 µg/mL. In [18] (setting [21]), the “Tagg ø (mean)” value came to 42.78 and the “Tonset ø (mean)” value is listed as 32.74. Further, in series [18] (setting [22]), the “Tm ø (mean), first melting point (Tm1)” value is given as 41.13 and the “Tm ø (mean), second melting point (Tm2)” value is given as 52.88. In addition, in [18] (Replicate 1), the Tagg is on record as 42.76 and the Tonset was 32.57. In series [18] (setting [23]), the “Tm, first melting point (Tm1)” value stood at 41.01 and the “Tm, second melting point (Tm2)” value was 52.86. In series [18] (Replicate 2), this molecule showed a Tagg of 42.80 and a Tonset of 32.90. Further, in series [18] (setting [24]), the “Tm, first melting point (Tm1)” value is 41.25 and the “Tm, second melting point (Tm2)” value is given as 52.91. The Tagg in series [18] (anti-Fel d1 VHH) was 42.30. For the same molecule, the Tm in series [18] (setting [20]) is 47.50.

B4: 18VH + 378VL: known Fel D1 positive control antibody, heavy chain SEQ ID NO: 66, light chain SEQ ID NO: 65 (antibody, V domains shown)
VH: EVQLVESGGGLVKPGGSLRLSCAASGFTFRNYNINWVRQAPGKGLEWVSLISGSSSYIYYADSVKGRFTVSRDNAKNSLYLQMNSLRAEDTAVYYCARRTLSYYVMDVWGQGTTVTVSS
VL: DIQLTQSPSFLSASVGDRVTITCWASQGISSYLAWYQQKPGKAPKLLIYSASTLQSGVPSRFSGSGSGTEFTLTISSLQPEDFATYYCQQLNSYPFTFGPGTKVDIK
As for B4, the “OD450 Using Positive Control” value is 4.47 and 4.44 in [19] (Volume of Fel D1-His 10 μL (concentration ~1 μg/μL)); 4.55 and 4.53 in [19] (Volume of Fel D1-His 50 μL (concentration ~1 μg/μL)); 4.60 in series [19] (Volume of Fel D1-His 100 μL (concentration ~1 μg/μL)).
